The record followed here is patent US20230322953A1 (HARBOUR BIOMED SHANGHAI, published 2023).

Test [1] deals with T1, biotinylated human BCMA-Fc, Avitag recombinant protein (ACRO Biosystems, #BC7-H82F0) (human, UniProt Q02223 1-54, biotinylated).
T1 construct: extracellular domain; Bought protein; also called human BCMA protein; recombinant human BCMA-ECD-Fc; not shown: Fc of the bought fusion protein; Avitag
T1 sequence (looked up): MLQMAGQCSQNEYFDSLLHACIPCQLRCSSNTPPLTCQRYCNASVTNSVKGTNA
Kind of test: BLI, dissociation rate relative to the original molecule PR001046 VH. A general note: BLI is a label-free optical method that tracks binding on a fibre tip over time.

In a further test the target is T2, human BCMA (human, UniProt Q02223 1-184).
T2 construct: whole, on cells; the cell line is named under assay; also called TNFRSF17; CD269
T2 sequence (looked up): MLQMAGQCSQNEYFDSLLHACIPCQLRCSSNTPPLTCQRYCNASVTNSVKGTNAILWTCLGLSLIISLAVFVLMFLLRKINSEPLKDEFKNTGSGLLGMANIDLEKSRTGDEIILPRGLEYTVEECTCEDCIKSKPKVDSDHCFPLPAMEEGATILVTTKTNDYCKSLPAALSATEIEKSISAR
Kind of test: flow cytometry, NCI-H929 cells, Flag-tagged VH single domain, anti-tag secondary antibody. (In general: In flow cytometry, cells or beads pass a laser one at a time.)

In test [2] the target is T1, biotinylated human BCMA-Fc, Avitag …. Kind of test: BLI (Octet Red96e), biotinylated BCMA-Fc on SA sensor, VH supernatant, 100 nM, single concentration.
Protocol: In this example, the binding kinetics between the anti-BCMA antibody and the BCMA antigenic protein were analyzed by the Biolayer Interferometry (BLI) technique using an Octet Red96e molecular interaction analyzer (ForteBio, Octet Red96e).

B1: PR004559, PR001046 VH-derived single-domain variant 1046-R1-12G7 (VHH)
VHH: EVQLVETGGGLIQPGGSLRLSCAASGFTVSDNYMTWVRQAPGKGLEWVSVIFSGGKTYYADSVKGRFTISRDNAKNTLYLQMNSLRAEDTALYYCARRNYDDTRGTDVFDIWGQGTMVTVSS
notes: Tested as VH single domain with Flag and His tags; also called PR001046-R1-12G7; not shown: Flag and His tags
In the case of B1, the Kdis fold in test [1] amounted to 0.54. Further, in the test with human BCMA, the EC50 – broadly, the concentration at which the effect is half-maximal – was found to be 22.4 nM and the “Maximum MFI” value turned out to be 1190. Besides, in test [2], the Response stood at 0.261 and the off-rate constant (koff) – broadly, a measure of how fast the partners let go of each other – worked out at 0.000379 s⁻¹.

B2: PR004574, PR001046 VH-derived single-domain variant 1046-R2-9E5 (VHH)
VHH: EVQLVETGGGLIQPGGSLRLSCAASGFTVSDAYMTWVRQAPGKGLEWVSVIFSGGRTYYSDSVKGRFTISRDNAKNTLYLQMNSLRAEDTALYYCARRNYDQTRGTDVFDIWGQGTMVTVSS
notes: Tested as VH single domain with Flag and His tags; not shown: Flag and His tags
In the case of B2, the Kdis fold in test [1] was 0.45. For the same molecule, in the test with human BCMA, the EC50 was 2.9 nM and the “Maximum MFI” value stood at 1300. For the same molecule, in test [2], the Response amounted to 0.29 and the koff worked out at 0.000314 s⁻¹.

B3: PR004565, PR001046 VH-derived single-domain variant 1046-R2-2G4 (VHH)
VHH: EVQLVETGGGLIQPGGSLRLSCAASGFTVSDAYMTWVRQAPGKGLEWVSVIFSGGNTYVSDSVKGRFTISRDNAKNTLYLQMNSLRAEDTALYYCARRNYDQTIGTDVFDIWGQGTMVTVSS
notes: as for B2
Turning to B3, the Kdis fold in test [1] is 0.34. In addition, in the test with human BCMA, it took 2.42 nM to reach a half-maximal effect (EC50) and the “Maximum MFI” value was found to be 1430. In test [2], the Response came out at 0.557 and the koff stood at 0.000236 s⁻¹.

B4: PR004566, PR001046 VH-derived single-domain variant 1046-R2-4G10 (VHH)
VHH: EVQLVETGGGLIQPGGSLRLSCAASGFTVSDSYMTWVRQAPGKGLEWVSVIFSGGRTYYSDSVKGRFTISRDNAKNTLYLQMNSLRAEDTALYYCARRNYDDTRGTDVFDIWGQGTMVTVSS
notes: as for B2
As for B4, the Kdis fold in test [1] worked out at 0.41. For the same molecule, in the test with human BCMA, the EC50 came to 3.17 nM and the “Maximum MFI” value stood at 1400. In addition, in test [2], the Response is 0.424 and the koff turned out to be 0.000286 s⁻¹.

B5: PR004573, PR001046 VH-derived single-domain variant 1046-R2-8B1 (VHH)
VHH: EVQLVETGGGLIQPGGSLRLSCAASGFTVSDSYMTWVRQAPGKGLEWVSVIFSGGKTYYADSVKGRFTISRDNAKNTLYLQMNSLRAEDTALYYCARRNYDDTRGTDVFDIWGQGTMVTVSS
notes: as for B2
B5: the Kdis fold in test [1] worked out at 0.41. In addition, in the test with human BCMA, the EC50 came out at 1.72 nM and the “Maximum MFI” value is 1230. Moreover, in test [2], the Response amounted to 0.268 and the off-rate constant (koff) is 0.000282 s⁻¹.

B6: PR004563, PR001046 VH-derived single-domain variant 1046-R2-1A1 (VHH)
VHH: EVQLVETGGGLIQPGGSLRLSCAASGFTVYDNYMTWVRQAPGKGLEWVSVIFSGGKTYVADSVKGRFTISRDNAKNTLYLQMNSLRAEDTALYYCARRNYDQTRGTDVFDIWGQGTMVTVSS
notes: as for B2
Take B6: in test [1], the Kdis fold came to 0.37. In the test with human BCMA, it took 7.96 nM to reach a half-maximal effect (EC50) and the “Maximum MFI” value amounted to 1260. Besides, in test [2], the Response turned out to be 0.493 and the koff is 0.000259 s⁻¹.

B7: PR004560, PR001046 VH-derived single-domain variant 1046-R2-10F1 (VHH)
VHH: EVQLVETGGGLIQPGGSLRLSCAASGFTVSDAYMTWVRQAPGKGLEWVSVIFSGGNTYVSDSVKGRFTISRDNAKNTLYLQMNSLRAEDTALYYCARRNYDQTRGTDVFDIWGQGTMVTVSS
notes: as for B2
Regarding B7, the Kdis fold in test [1] was 0.43. In the test with human BCMA, the concentration for a half-maximal effect (EC50) is 3.75 nM and the “Maximum MFI” value is 1300. For the same molecule, in test [2], the Response was found to be 0.573 and the koff stood at 0.000301 s⁻¹.

B8: PR004571, PR001046 VH-derived single-domain variant 1046-R2-6F1 (VHH)
VHH: EVQLVETGGGLIQPGGSLRLSCAASGFTVSDSYMTWVRQAPGKGLEWVSVIFSGGKTYYSDSVKGRFTISRDNAKNTLYLQMNSLRAEDTALYYCARRNYDQTIGTDVFDIWGQGTMVTVSS
notes: as for B2
With B8, the Kdis fold in test [1] turned out to be 0.31. In the test with human BCMA, the EC50 is 2.86 nM and the “Maximum MFI” value turned out to be 1380. In test [2], the Response is 0.704 and the koff was 0.000219 s⁻¹.

B9: PR004561, PR001046 VH-derived single-domain variant 1046-R2-10H1 (VHH)
VHH: EVQLVETGGGLIQPGGSLRLSCAASGFTVSDSYMTWVRQAPGKGLEWVSVIFSGGNTYYADSVKGRFTISRDNAKNTLYLQMNSLRAEDTALYYCARRNYDQTLGTDVFDIWGQGTMVTVSS
notes: as for B2
Regarding B9, in test [1], the Kdis fold was determined as 0.43. Besides, in the test with human BCMA, the EC50 was 4.38 nM and the “Maximum MFI” value is 1240. For the same molecule, in test [2], the Response came out at 0.269 and the koff stood at 0.0003 s⁻¹.

B10: PR004567, PR001046 VH-derived single-domain variant 1046-R2-5E1 (VHH)
VHH: EVQLVETGGGLIQPGGSLRLSCAASGFTVSDSYMTWVRQAPGKGLEWVSVIFSGGKTYVADSVKGRFTISRDNAKNTLYLQMNSLRAEDTALYYCARRNYDQTRGTDVFDIWGQGTMVTVSS
notes: as for B2
As to B10, the Kdis fold in test [1] turned out to be 0.29. Moreover, in the test with human BCMA, the EC50 is 1.72 nM and the “Maximum MFI” value worked out at 1440. For the same molecule, in test [2], the Response turned out to be 0.578 and the koff was 0.000201 s⁻¹.

B11: PR004564, PR001046 VH-derived single-domain variant 1046-R2-2D4 (VHH)
VHH: EVQLVETGGGLIQPGGSLRLSCAASGFTVSDSYMTWVRQAPGKGLEWVSVIFSGGRTYYSDSVKGRFTISRDNAKNTLYLQMNSLRAEDTALYYCARRNYDQTLGTDVFDIWGQGTMVTVSS
notes: as for B2
On to B11, for which the Kdis fold in test [1] was found to be 0.33. In addition, in the test with human BCMA, a half-maximal response (EC50) required 1.34 nM and the “Maximum MFI” value was found to be 1530. In addition, in test [2], the Response was 0.57 and the koff worked out at 0.000228 s⁻¹.

B12: PR004569, PR001046 VH-derived single-domain variant 1046-R2-5H2 (VHH)
VHH: EVQLVETGGGLIQPGGSLRLSCAASGFTVSDSYMTWVRQAPGKGLEWVSVIFSGGRTYYSDSVKGRFTISRDNAKNTLYLQMNSLRAEDTALYYCARRNYDQTRGTDVFDIWGQGTMVTVSS
notes: as for B2
For the molecule B12, in test [1], the Kdis fold was 0.36. Moreover, in the test with human BCMA, the response was half-maximal at 5.87 nM (EC50) and the “Maximum MFI” value is 1420. Moreover, in test [2], the Response is 0.73 and the koff was 0.000254 s⁻¹.

B13: PR004562, PR001046 VH-derived single-domain variant 1046-R2-10H5 (VHH)
VHH: EVQLVETGGGLIQPGGSLRLSCAASGFTVSDSYMTWVRQAPGKGLEWVSVIFSGGKTYYSDSVKGRFTISRDNAKNTLYLQMNSLRAEDTALYYCARRNYDQTLGTDVFDIWGQGTMVTVSS
notes: as for B2
As for B13, the Kdis fold in test [1] is 0.31. Also, in the test with human BCMA, the EC50 came to 1.24 nM and the “Maximum MFI” value was determined as 1560. In addition, in test [2], the Response is 0.535 and the koff was 0.000217 s⁻¹.

B14: PR004568, PR001046 VH-derived single-domain variant 1046-R2-5H1 (VHH)
VHH: EVQLVETGGGLIQPGGSLRLSCAASGFTVSDAYMTWVRQAPGKGLEWVSVIFSGGRTYVADSVKGRFTISRDNAKNTLYLQMNSLRAEDTALYYCARRNYDDTRGTDVFDIWGQGTMVTVSS
notes: as for B2
B14: the Kdis fold in test [1] is 0.33. Besides, in the test with human BCMA, the EC50 is 2.85 nM and the “Maximum MFI” value worked out at 1440. For the same molecule, in test [2], the Response came out at 0.733 and the koff was 0.00023 s⁻¹.

B15: PR004572, PR001046 VH-derived single-domain variant 1046-R2-7E7 (VHH)
VHH: EVQLVETGGGLIQPGGSLRLSCAASGFTVSDSYMTWVRQAPGKGLEWVSVIFSGGKTYVADSVKGRFTISRDNAKNTLYLQMNSLRAEDTALYYCARRNYDDTRGTDVFDIWGQGTMVTVSS
notes: Tested as VH single domain with Flag and His tags; also called PR001046-R2-7E7; not shown: Flag and His tags
Turning to B15, in test [1], the Kdis fold was determined as 0.34. In addition, in the test with human BCMA, it took 0.54 nM to reach a half-maximal effect (EC50) and the “Maximum MFI” value is 1500. In test [2], the Response was found to be 0.29 and the koff was 0.000236 s⁻¹.

B16: PR004570, PR001046 VH-derived single-domain variant 1046-R2-6D6 (VHH)
VHH: EVQLVETGGGLIQPGGSLRLSCAASGFTVSDAYMTWVRQAPGKGLEWVSVIFSGGRTYYADSVKGRFTISRDNAKNTLYLQMNSLRAEDTALYYCARRNYDQTRGTDVFDIWGQGTMVTVSS
notes: as for B2
As to B16, in test [1], the Kdis fold was 0.34. In addition, in the test with human BCMA, the 50% effective concentration (EC50) turned out to be 2.15 nM and the “Maximum MFI” value is 1360. For the same molecule, in test [2], the Response turned out to be 0.437 and the koff is 0.000234 s⁻¹.
